This is an account of results in paper PMC10149743, “Structural studies of the nucleus-like assembly of jumbo bacteriophage 201φ2-1” (Frontiers in Microbiology, 2023).

Data set [1] concerns the molecule itself. The experiment in a line: SEC; truncation mutants of gp105, purified as the wild type, Superose 6 Increase 10/300 GL in buffer B (20 mM HEPES pH 7.5, 150 mM NaCl); self-association.
Data set [2] concerns the molecule itself. The data set is described as follows: cryo-EM structure; cube-like particles from the 11.4 ml SEC peak; reconstruction with O symmetry (4.76 Å) and without symmetry (6.41 Å).

B1: gp105Δ(loop 279–285) (natural protein, Pseudomonas phage 201phi2-1, UniProt B3FIW8 1-631, looked up)
chain: MIRDTATNTTQTQAAPQQAPAQQFTQAPQEKPMQSTQSQPTPSYAGTGGINSQFTRSGNVQGGDARASEALTVFTRLKEQAVAQQDLADDFSILRFDRDQHQVGWSSLVIAKQISLNGQPVIAVRPLILPNNSIELPKRKTNIVNGMQTDVIESDIDVGTVFSAQYFNRLSTYVQNTLGKPGAKVVLAGPFPIPADLVLKDSELQLRNLLIKSVNACDDILALHSGERPFTIAGLKGQQGETLAAKVDIRTQPLHDTVGNPIRADIVVTTQRVRRNGQTDVKLNQVAMFTNLERTPQAQAQTLFPNQQQVATPAPWVASVVITDVRNADGIQANTPEMYWFALSNAFRSTHGHAWARPFLPMTGVAKDMKDIGALGWMSALRNRIDTKAANFDDAQFGQLMLSQVQPNPVFQIDLNRMGETAQMDSLQLDAAGGPNAQKAAATIIRQINNLGGGGFERFFDHTTQPILERTGQVIDLGNWFDGDEKRDRRDLDNLAALNAAEGNENEFWGFYGAQLNPNLHPDLRNRQSRNYDRQYLGSTVTYTGKAERCTYNAKFIEALDRYLAEAGLQITMDNTSVLNSGQRFMGNSVIGNNMVSGQAQVHSAYAGTQGFNTQYQTGPSSFY
notes: gp105 of Pseudomonas phage 201phi2-1, GenBank ABY62937, loop residues 279-285 deleted; source: E. coli BL21 (DE3) pLysS, purified using the same method as for the wild type gp105
With B1, the binding result in data set [1] is “binds”.

B2: gp105Δ(NTS 1–60) (domain or fragment, Pseudomonas phage 201phi2-1, UniProt B3FIW8 61-631, looked up)
chain: QGGDARASEALTVFTRLKEQAVAQQDLADDFSILRFDRDQHQVGWSSLVIAKQISLNGQPVIAVRPLILPNNSIELPKRKTNIVNGMQTDVIESDIDVGTVFSAQYFNRLSTYVQNTLGKPGAKVVLAGPFPIPADLVLKDSELQLRNLLIKSVNACDDILALHSGERPFTIAGLKGQQGETLAAKVDIRTQPLHDTVGNPIRADIVVTTQRVRRNGQQENEFYETDVKLNQVAMFTNLERTPQAQAQTLFPNQQQVATPAPWVASVVITDVRNADGIQANTPEMYWFALSNAFRSTHGHAWARPFLPMTGVAKDMKDIGALGWMSALRNRIDTKAANFDDAQFGQLMLSQVQPNPVFQIDLNRMGETAQMDSLQLDAAGGPNAQKAAATIIRQINNLGGGGFERFFDHTTQPILERTGQVIDLGNWFDGDEKRDRRDLDNLAALNAAEGNENEFWGFYGAQLNPNLHPDLRNRQSRNYDRQYLGSTVTYTGKAERCTYNAKFIEALDRYLAEAGLQITMDNTSVLNSGQRFMGNSVIGNNMVSGQAQVHSAYAGTQGFNTQYQTGPSSFY
notes: gp105 of Pseudomonas phage 201phi2-1, GenBank ABY62937, residues 1-60 removed; Truncation made by PCR and In-Fusion cloning into pET28a; source: E. coli BL21 (DE3) pLysS, purified using the same method as for the wild type gp105
Consider B2, for which the binding result in data set [1] is reported as “binds”.

B3: nucleus-like shell protein gp105 of bacteriophage 201φ2-1, wild type, C-terminal His6 (natural protein, Pseudomonas phage 201phi2-1, UniProt B3FIW8 1-631, looked up)
chain: MIRDTATNTTQTQAAPQQAPAQQFTQAPQEKPMQSTQSQPTPSYAGTGGINSQFTRSGNVQGGDARASEALTVFTRLKEQAVAQQDLADDFSILRFDRDQHQVGWSSLVIAKQISLNGQPVIAVRPLILPNNSIELPKRKTNIVNGMQTDVIESDIDVGTVFSAQYFNRLSTYVQNTLGKPGAKVVLAGPFPIPADLVLKDSELQLRNLLIKSVNACDDILALHSGERPFTIAGLKGQQGETLAAKVDIRTQPLHDTVGNPIRADIVVTTQRVRRNGQQENEFYETDVKLNQVAMFTNLERTPQAQAQTLFPNQQQVATPAPWVASVVITDVRNADGIQANTPEMYWFALSNAFRSTHGHAWARPFLPMTGVAKDMKDIGALGWMSALRNRIDTKAANFDDAQFGQLMLSQVQPNPVFQIDLNRMGETAQMDSLQLDAAGGPNAQKAAATIIRQINNLGGGGFERFFDHTTQPILERTGQVIDLGNWFDGDEKRDRRDLDNLAALNAAEGNENEFWGFYGAQLNPNLHPDLRNRQSRNYDRQYLGSTVTYTGKAERCTYNAKFIEALDRYLAEAGLQITMDNTSVLNSGQRFMGNSVIGNNMVSGQAQVHSAYAGTQGFNTQYQTGPSSFY
notes: gp105 (nucleus-like shell protein, chimallin) of Pseudomonas phage 201phi2-1, GenBank ABY62937; 631 amino acids; synthesised codon-optimised gene in pET28a; residues 1-48 and 583-631 are named as present but not built in the model; Occurs as monomer, 24-mer cube-like particle and large sheet-like assemblies; also called NLSP; source: E. coli BL21 (DE3) pLysS, purified (cobalt resin, Superose 6 …)
As usually defined, the stoichiometry N is the number of molecules, sites or subunits per partner or assembly. As for B3, the “stoichiometry N” value in data set [2] was found to be 24.

B4: gp105Δ(NTS 1–17, CTS 609–631) (domain or fragment, Pseudomonas phage 201phi2-1, UniProt B3FIW8 18-608, looked up)
chain: QAPAQQFTQAPQEKPMQSTQSQPTPSYAGTGGINSQFTRSGNVQGGDARASEALTVFTRLKEQAVAQQDLADDFSILRFDRDQHQVGWSSLVIAKQISLNGQPVIAVRPLILPNNSIELPKRKTNIVNGMQTDVIESDIDVGTVFSAQYFNRLSTYVQNTLGKPGAKVVLAGPFPIPADLVLKDSELQLRNLLIKSVNACDDILALHSGERPFTIAGLKGQQGETLAAKVDIRTQPLHDTVGNPIRADIVVTTQRVRRNGQQENEFYETDVKLNQVAMFTNLERTPQAQAQTLFPNQQQVATPAPWVASVVITDVRNADGIQANTPEMYWFALSNAFRSTHGHAWARPFLPMTGVAKDMKDIGALGWMSALRNRIDTKAANFDDAQFGQLMLSQVQPNPVFQIDLNRMGETAQMDSLQLDAAGGPNAQKAAATIIRQINNLGGGGFERFFDHTTQPILERTGQVIDLGNWFDGDEKRDRRDLDNLAALNAAEGNENEFWGFYGAQLNPNLHPDLRNRQSRNYDRQYLGSTVTYTGKAERCTYNAKFIEALDRYLAEAGLQITMDNTSVLNSGQRFMGNSVIGNNMVSGQAQ
notes: gp105 of Pseudomonas phage 201phi2-1, GenBank ABY62937, residues 1-17 and 609-631 removed; Truncation made by PCR and In-Fusion cloning into pET28a; source: E. coli BL21 (DE3) pLysS, purified using the same method as for the wild type gp105
Consider B4, for which the binding result in data set [1] is on record as “binds”.

B5: gp105Δ(NTS 1–17) (domain or fragment, Pseudomonas phage 201phi2-1, UniProt B3FIW8 18-631, looked up)
chain: QAPAQQFTQAPQEKPMQSTQSQPTPSYAGTGGINSQFTRSGNVQGGDARASEALTVFTRLKEQAVAQQDLADDFSILRFDRDQHQVGWSSLVIAKQISLNGQPVIAVRPLILPNNSIELPKRKTNIVNGMQTDVIESDIDVGTVFSAQYFNRLSTYVQNTLGKPGAKVVLAGPFPIPADLVLKDSELQLRNLLIKSVNACDDILALHSGERPFTIAGLKGQQGETLAAKVDIRTQPLHDTVGNPIRADIVVTTQRVRRNGQQENEFYETDVKLNQVAMFTNLERTPQAQAQTLFPNQQQVATPAPWVASVVITDVRNADGIQANTPEMYWFALSNAFRSTHGHAWARPFLPMTGVAKDMKDIGALGWMSALRNRIDTKAANFDDAQFGQLMLSQVQPNPVFQIDLNRMGETAQMDSLQLDAAGGPNAQKAAATIIRQINNLGGGGFERFFDHTTQPILERTGQVIDLGNWFDGDEKRDRRDLDNLAALNAAEGNENEFWGFYGAQLNPNLHPDLRNRQSRNYDRQYLGSTVTYTGKAERCTYNAKFIEALDRYLAEAGLQITMDNTSVLNSGQRFMGNSVIGNNMVSGQAQVHSAYAGTQGFNTQYQTGPSSFY
notes: gp105 of Pseudomonas phage 201phi2-1, GenBank ABY62937, residues 1-17 removed; Truncation made by PCR and In-Fusion cloning into pET28a; source: E. coli BL21 (DE3) pLysS, purified using the same method as for the wild type gp105
In the case of B5, in data set [1], the binding result is reported as “binds”.
